Measured values reported in paper PMC4772114, “Structural basis for the regulation of enzymatic activity of Regnase-1 by domain-domain interactions” (Scientific Reports, 2016).

Legend:
[1] = molecular target: the molecule itself; assay: crystal structure; PIN-ZF (134-339), sitting drop vapor diffusion at 20 C; form I (P3_121, selenomethionine-labeled) and form II (P3_221, native)
[2] = molecular target: the molecule itself; assay: not stated; Kd of PIN-PIN told in the discussion only; how it was estimated is not told
[3] = molecular target: the molecule itself; assay: SEC; gel filtration of the PIN domain and its mutants; elution volume compared with standard marker proteins; concentration dependent, 20-200 uM range
[4] = molecular target: T1, Regnase-1 ZF domain (Mus musculus, UniProt Q5D1E7 299-339); assay: NMR titration (1H-15N HSQC, Y314); Zn2+-bound ZF; 100 uM ZF; apparent Kd; EMSA: 20 mM HEPES-NaOH pH 6.8, 150 mM NaCl, 1 mM DTT, 10% glycerol, 0.1% NP-40, 4 C, 30 min; NMR buffer not in material; details: protein: recombinant; tags: GST removed (HRV-3C), 15N-labeled
T1 chain: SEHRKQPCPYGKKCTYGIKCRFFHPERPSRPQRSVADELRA

[5] = molecular target: T2, Regnase-1 PIN domain, catalytically inactive monomeric mutant (DDNN and D278R) (Mus musculus, UniProt Q5D1E7 134-295, D226N | D244N | D278R); assay: NMR titration; 1H-15N HSQC of 15N-labeled NTD at 100 uM with unlabeled PIN (DDNN, D278R) added (3 or 6 molar equivalents); 298 K; apparent Kd from the titration curve of L58; details: both partners purified
T2 construct: Regnase-1 (Zc3h12a), Mus musculus, PIN domain; the discussion gives PIN as residues 134-295; Limits as for m1; Uniformly 15N-labelled or unlabelled in the NMR experiments; not shown: GST, N-terminal, cleaved
T2 sequence (looked up): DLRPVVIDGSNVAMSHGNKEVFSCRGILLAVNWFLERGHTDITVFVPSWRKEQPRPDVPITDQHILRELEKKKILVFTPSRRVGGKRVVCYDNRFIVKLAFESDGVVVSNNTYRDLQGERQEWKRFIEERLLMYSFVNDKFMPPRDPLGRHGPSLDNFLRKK

B1: Regnase-1 PIN-ZF (residues 134-339) (domain or fragment, Mus musculus, UniProt Q5D1E7 134-339, looked up)
chain: DLRPVVIDGSNVAMSHGNKEVFSCRGILLAVNWFLERGHTDITVFVPSWRKEQPRPDVPITDQHILRELEKKKILVFTPSRRVGGKRVVCYDDRFIVKLAFESDGVVVSNDTYRDLQGERQEWKRFIEERLLMYSFVNDKFMPPDDPLGRHGPSLDNFLRKKPLPSEHRKQPCPYGKKCTYGIKCRFFHPERPSRPQRSVADELRA
modifications: selenomethionine-labeled (form I crystals); native (form II crystals)
notes: Regnase-1 (Zc3h12a), Mus musculus, PIN and ZF domains, residues 134-339; Electron density was observed only for the PIN domain; also called fragment containing both the PIN and ZF domains; not shown: GST, N-terminal, cleaved
B1: binds [1].

B2: Regnase-1 PIN domain, wild type (domain or fragment, Mus musculus, UniProt Q5D1E7 134-295, looked up)
chain: DLRPVVIDGSNVAMSHGNKEVFSCRGILLAVNWFLERGHTDITVFVPSWRKEQPRPDVPITDQHILRELEKKKILVFTPSRRVGGKRVVCYDDRFIVKLAFESDGVVVSNDTYRDLQGERQEWKRFIEERLLMYSFVNDKFMPPDDPLGRHGPSLDNFLRKK
notes: Regnase-1 (Zc3h12a, MCPIP1), Mus musculus, PIN domain; the discussion gives PIN as residues 134-295; The limits 134-295 are told for the PIN domain in the discussion, not expressly for the construct; 15N-labelled for NMR; also called PilT N-terminus like domain; not shown: GST, N-terminal, cleaved
Binder B2 has a Kd [2] of roughly 100 µM.

B3: Regnase-1 PIN domain R215E (domain or fragment, Mus musculus, UniProt Q5D1E7 134-295, looked up)
chain: DLRPVVIDGSNVAMSHGNKEVFSCRGILLAVNWFLERGHTDITVFVPSWRKEQPRPDVPITDQHILRELEKKKILVFTPSREVGGKRVVCYDDRFIVKLAFESDGVVVSNDTYRDLQGERQEWKRFIEERLLMYSFVNDKFMPPDDPLGRHGPSLDNFLRKK
notes: Regnase-1 (Zc3h12a), Mus musculus, PIN domain; the discussion gives PIN as residues 134-295; Limits as for m1; not shown: GST, N-terminal, cleaved
B3: binds [3].

B4: IL-6 mRNA 3'UTR (82-106) (ssRNA)
RNA: UGUUGUUCUCUACGAAGAACUGACA
With B4 the Kd [4] was 10 ± 1.1 µM.

B5: Regnase-1 N-terminal domain (NTD) (domain or fragment, Mus musculus)
chain: TSELQMKVDFFRKLGYSSSEIHSVLQKLGVQADTNTVLGELVKHG
notes: Regnase-1 (Zc3h12a), Mus musculus, N-terminal domain; residues 90-133 are called the connection between the NTD and PIN; Uniformly 15N-labelled or unlabelled in the NMR experiments; not shown: GST, N-terminal, cleaved
B5 gave a Kd [5] of 110 ± 5.8 µM.
